Experimental data: publication PMC8722725, “Histone H3 deacetylation promotes host cell viability for efficient infection by Listeria monocytogenes” (PLoS Pathogens, 2021)

Biological target: T1, mCherry-TDP-43 (UniProt Q13148 1-414)
T1 construct: TDP-43, cloned from the plasmid TDP43 NOTAG1 (Addgene #28206); also called pmCherry TDP-43; source: HeLa, co-transfected, in lysate
Experiment: co-IP; RFP-Trap agarose beads on lysate of HeLa cells co-transfected with mCherry-TDP-43 and SIRT2-GFP variants; blot for TDP-43 and GFP
Details: partners not purified

T1 sequence (Q13148 whole entry): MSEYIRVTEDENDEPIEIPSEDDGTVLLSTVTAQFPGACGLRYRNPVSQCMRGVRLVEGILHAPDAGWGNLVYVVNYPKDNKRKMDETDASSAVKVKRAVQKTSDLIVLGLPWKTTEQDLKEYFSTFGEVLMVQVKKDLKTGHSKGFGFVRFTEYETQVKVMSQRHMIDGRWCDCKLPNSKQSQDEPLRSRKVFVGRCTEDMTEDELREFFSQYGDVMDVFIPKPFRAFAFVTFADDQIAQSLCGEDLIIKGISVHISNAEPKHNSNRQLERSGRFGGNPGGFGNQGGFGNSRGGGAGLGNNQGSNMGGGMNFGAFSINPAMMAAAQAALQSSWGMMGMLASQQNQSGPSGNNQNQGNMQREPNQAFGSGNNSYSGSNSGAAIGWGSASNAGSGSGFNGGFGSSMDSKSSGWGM

B1: dephosphomimetic S25A SIRT2-GFP (enzyme, UniProt Q8IXJ6 1-389, looked up)
chain: MAEPDPSHPLETQAGKVQEAQDSDADSEGGAAGGEADMDFLRNLFSQTLSLGSQKERLLDELTLEGVARYMQSERCRRVICLVGAGISTSAGIPDFRSPSTGLYDNLEKYHLPYPEAIFEISYFKKHPEPFFALAKELYPGQFKPTICHYFMRLLKDKGLLLRCYTQNIDTLERIAGLEQEDLVEAHGTFYTSHCVSASCRHEYPLSWMKEKIFSEVTPKCEDCQSLVKPDIVFFGESLPARFFSCMQSDFLKVDLLLVMGTSLQVQPFASLISKAPLSTPRLLINKEKAGQSDPFLGMIMGLGGGMDFDSKKAYRDVAWLGECDQGCLALAELLGWKKELEDLVRREHASIDAQSGAGVPNPSTSASPKKSPPPAKDEARTTEREKPQ
notes: Sirtuin 2 (SIRT2) with the dephosphomimetic change S25A; also called S25A dephosphomimetic; source: HeLa, co-transfected, in lysate
fold increase in co-precipitation relative to the WT variant: ~2.5 fold
